“And” between values parts separate entries of the source, which are not always exact repeats. Equal values may be shown once. “Also recorded” adds a separate entry of the source.
Columns and labels:
GSK-3β = GSK-3β in vitro kinase activity after immunoprecipitation from N2aSwe cells; format: cell-based, mouse; settings: in vitro kinase assay, FG01-overexpressing N2aSwe cells vs control
Description: The levels of the recombinant Notch (NotchΔE with Myc-tag) and the γ-secretase cleaved Notch fragment (NICD) were quantified by Western blotting using myc antibody and an antibody specific to processed Notch followed by densitometry. […] The results represent at least four independent experiments.
(§1) Commercial kits were used to assay in vitro activities of GSK-3β (Sigma) and PKA (Upstate). For GSK-3α activity, a commercial GSK-3β activity assay kit was used but the procedure to immunoprecititate GSK-3β was replaced with immunoprecipitation of GSK-3α using an anti-GSK-3α antibody (Cell Signaling). cAMP levels were assayed using a commercial kit (Biovision).

CDK5 [1] = assay: CDK5 protein level and in vitro activity in N2a cells; format: cell-based, mouse; settings: FG01 overexpression
Experimental: The in vitro activity of CDK5 was assayed as described (Han et al., 2005). Briefly, CDK5 protein was immunoprecipitated and incubated with histone-H1 in [γ-^32P]ATP-containing buffer. After reaction termination, samples were subjected to SDS-PAGE and autoradiography. Results were quantified using a PhosphoImager (Molecular Dynamics).
GSK-3 is a major kinase that phosphorylates tau in AD (Flaherty et al., 2000). […] N2aSwe cells were cotransfected with the human tau splice variant T40 and with FG01 (or control vectors), and examined tau phosphorylation at the threonine 205 site (Thr205) and the PHF-1 tau epitope sites (serine 396 and serine 404), which are GSK-3 phosphorylation targets, and at the major paired helical filament (PHF) sites found in NFTs. […] Protein levels and activity of CDK5, another kinase mediating tau phosphorylation in AD (Flaherty et al., 2000), was analyzed following FG01 overexpression. […] N2a cells were transfected with FG01 or a control vector (Con). Equal cell lysate proteins were used for assaying in vitro CDK5 activity.

CDK5 [2] = assay: CDK5 levels by Western blot in transfected HeLa and MFB cells; format: cell-based, mouse and human; settings: FG01-transfected HeLa and MFB cells
Description: The expression of CDK5, FG01 and α-tubulin were detected by Western blots in transfected HeLa and MFB cells.

Aβ generation = Aβ generation / APP processing in HeLaSwe cells expressing FG01 (Western blot, ELISA); format: cell-based, human
Experimental: Expression of secreted Aβ, sAPPα, β-CTF, total APP, α-tubulin and FG01 were detected by Western blots.
HeLa/swe cells were transfected with GSK-3β and/or FG01 as indicated. The levels of Aβ40/42 were determined by modified ELISA. The expression of GSK-3β and β-catenin were shown by Western blots. n=4.
HeLaSwe cells were transfected with FG01 or controls. Conditioned media and lysates from these cells were collected. The levels of Aβ40 and Aβ42 were quantified using ELISA kits (Invitrogen), following the manufacturer's protocols.
To corroborate this, FG01 was over expressed in N2aSwe cells.

PKC = PKC activity in N2a cell lysates (32P peptide substrate); format: cell-based, mouse; settings: FG01 overexpression in N2a cells
Experimental: N2a cells were transfected with pcDNA or FG01. After lysis, cell lysates containing […] of total proteins were incubated with synthesized PKC specific peptide substrate and ^32P-ATP. The ^32P labeled peptides were captured and the radioactivities were quantified by scintillation. The activities of PKC were represented by the normalized radioactivities of the labeled peptide substrates. n=4.

PKA = PKA in vitro activity and CREB phosphorylation in FG01-transfected cells; format: cell-based, mouse
Experimental: After lysis, cell lysates were assayed for PKA activity, using a commercial kit and following the manufacturer's protocol (Upstate, catalog number 17-134). n=4.
as §1
Inhibition of GSK-3 activity via phosphorylation of serine 21 in GSK-3α and serine 9 in GSK-3β can be mediated by protein kinase A (PKA) (Fang et al., 2000), so whether FG01 regulates PKA activity was studied. […] Moreover, increased sAPPα secretion upon FG01 overexpression (FIG. 29A) is also likely due to PKA activation, because PKA can stimulate budding of APP-containing vesicles from the Trans-Golgi Network (TGN) and facilitates sAPPα generation (Xu et al., 1996).

adenylate cyclases = assay: co-immunoprecipitation of FG01 with adenylate cyclases; format: binding, mouse; settings: N2a cells overexpressing FG01
Experimental: After 48-72 hrs, cells were lysed and cell lysates were subjected to immunoprecipitation with mouse IgG, rabbit IgG, myc antibody and adenylyl cyclase (AC) antibody (Santa Cruz Biotechnology, catalog number sc-1701), and then immunoblotted with antibodies against adenylyl cyclase (AC) and myc, respectively.
Cells transfected with FG01 were lysed in either CHAPSO buffer (1% CHAPSO, 25 mM HEPES, pH7.4, 150 mM NaCl, and 2 mM EDTA supplemented with protease inhibitors) or in NP40 buffer (1% NP40 in phosphate buffered saline, supplemented with protease inhibitors). Lysates were immunoprecipitated using mouse IgG, rabbit IgG, and antibodies against Myc or adenylate cyclases and Trueblot™ IP beads (eBioscience), followed by Western blot with antibodies against Myc or adenylate cyclases.

β-secretase (BACE1) = β-secretase (BACE1) in vitro activity and protein level in FG01-overexpressing cells; format: cell-based, mouse
Experimental: The in vitro activity of β-secretase (BACE1) was assayed using a commercial kit (Calbiochem), following the manufacturer's protocol.
To determine whether FG01 reduces Aβ generation by modulating β-secretase activities, β-secretase (BACE1) activity and the protein level of BACE1 in vitro in FG01-overexpressing cells was examined and both were unchanged. FG01 cell clones identified by RHKO were treated with DMSO (control) or 2 μg/ml doxycycline for 72 hrs. In some experiments, N2a cells were transfected with control vector (Con) or FG01 vector for 48 hrs. Cell lysates were assayed for β-secretase activity. FG01 was transfected into N2a cells and equal protein lysates were subjected to SDS-PAGE and Western blot with antibodies against BACE1 (Yan et al., 2001), nicastrin (Leem et al., 2002) or Myc. APP βCTF accumulation can also be attributed to a decrease in γ-secretase-mediated cleavage.

β-catenin = β-catenin level in human HEK293 cells (Western blot); format: cell-based; settings: FG01 expression
Description: Expression of β-catenin, inactivated phospho-GSK-3β, total GSK-3, APP, β-CTF and FG01 in transfected human HEK293 cells were shown by Western blots.

[3] = ELISA, HeLaSwe cells, FG01 expression

B1: FG01: 141 amino acid transmembrane protein encoded by mouse retrogene fg01 (SEQ ID NO:2); expressed from transfected vector or transgene (protein)
chain: MQSQQRNIGYFNHLKADSRNITYSMTFSTKSSNQNFIIFLNEVQAAIIGHERCDLLPVLNELHPDALPDGRIWLFGLNPYFFQHNSLCMRGTPKRIGLQGCAQVGFLVLFVMPLLIPSVTAELPGSSETTTLAHLAGATGP
modifications: Myc and His6 tags; homo sapien
notes: expressed from transfected vector or transgene
- decrease in GSK-3β activity (GSK-3β): ~30% and 40%
- CDK5 in vitro activity (CDK5 [1]): Little change
- CDK5 protein level (CDK5 [1]): Little change
- levels of CDK5 (CDK5 [2]): did not change
- Aβ40 level (Aβ generation; [3]): significantly reduced
- Aβ42 level (Aβ generation; [3]): significantly reduced
- effects of overexpression of GSK-3β on Aβ production (Aβ generation; HeLa/swe cells transfected with GSK-3β and/or FG01, Aβ40/42 ELISA): suppressed
- Aβ levels / Aβ generation (Aβ generation; mouse FG01 expressed in HeLa cells with APP Swedish mutant): decreases; also recorded: reduced Aβ generation
- accumulation of sAPPα (Aβ generation; mouse FG01 in HeLaSwe cells): increased accumulation
- accumulation of βCTF (Aβ generation; mouse FG01 in HeLaSwe cells): increased accumulation
- PKC activity (PKC): increased
- PKA activity (PKA; FG01-transfected N2a/Swe cells vs control): significantly increase; also recorded: significantly more PKA activity
- phosphorylation of CREB (PKA substrate) (PKA; FG01 overexpression): increased
- interaction with adenylate cyclases (adenylate cyclases): interacts
- protein level of BACE1 (β-secretase (BACE1); FG01-overexpressing N2a cells, Western blot): unchanged
- β-secretase (BACE1) activity (β-secretase (BACE1); in vitro assay, FG01-overexpressing cells): did not significantly change; also recorded: unchanged
- level of β-catenin (β-catenin): increases

Source: US20090233993A1, “COMPOSITIONS AND METHODS FOR INHIBITING GSK3 ACTIVITY AND USES THEREOF” (Burnham Institute for Medical Research, priority 2008, published 2009)
